± gives the uncertainty stated by the source.
Experiment: self-splicing fitness, log relative to wild type (ln ratio); higher = more splicing; Tetrahymena group I intron in knt gene, E. coli kanamycin selection, DiMSum; sequences stand for … in CUCUCU…GGAGGGAAAAGUUAUCAGGCAUGCACCUGGUAGCUAGUCUUUAAACCAAUAGAUUGCAUCGGUUUAAAAGGCAAGACCGUCAAAUUGCGGGAAAGGGGUCAACAGCCGUUCAGUACCAAGUCUCAGGGGAAACUUUGAGAUGGCCUUGCAAAGGGUAUGGUAAUAAGCUGACGGACAUGGUCCUAACCACGCAGCCAAGUCCUAAGUCAACAGAUCUUCUGUUGAUAUGGAUGCAGUUCACAGACUAAAUGUCGGUCGGGGAAGAUGUAUUCUUCUCAUAAGAUAUAGUCGGACCUCUCCUUAAUGGGAGCUAGCGGAUGAAGUGAUGCAACACUGGAGCCGCUGGGAACUAAUUUGUAUGCGAAAGUAUAUUGAUUAGUUUUGGAGUACUCGUGGUCG
Method in brief: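 Pooled colonies went to amplicon sequencing on an Illumina HiSeq 2500 after six replicate transformations. The plates were LB agar with 100 μg/mL carbenicillin, 50 μM IPTG and 0.2% rhamnose, with or without 25 μg/mL kanamycin, incubated overnight at 37°C or 30°C. The E. coli BL21(DE3) library had all eight P1ex-region intron nucleotides randomised, the intron placed in the knt kanamycin-resistance gene on pET-22b(+). DiMSum fitness is the error-weighted combination of replicate fold changes, kanamycin against none, normalised to wild type.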

Row | Sequence | self-splicing fitness (ln) (30 °C) | self-splicing fitness (ln) (37 °C)
1 | CAUAAGCAAUAUUACGAUUU | -2.47 ± 0.13 | -2.19 ± 0.16
2 | AAAGAGCAAUAUUACGGCAU | -1.83 ± 0.087 | -0.726 ± 0.097
3 | ACAUAGCAAUAUUACGCGCC | -0.408 ± 0.16 | 0.199 ± 0.26
4 | UGCCAGCAAUAUUACGGCGA | -0.122 ± 0.072 | 0.211 ± 0.093
5 | AAGUAGCAAUAUUACGGGUG | -3.43 ± 0.17 | -1.14 ± 0.12
6 | CUAGAGCAAUAUUACGUCUC | -3.75 ± 0.2 | -2.76 ± 0.25
7 | GUAAAGCAAUAUUACGAGUU | -1.12 ± 0.093 | -0.815 ± 0.12
8 | CGGGAGCAAUAUUACGUGUU | -5.29 ± 0.38 | -2.2 ± 0.25
9 | UUCGAGCAAUAUUACGGUGC | -3.24 ± 0.31 | -2.29 ± 0.29
10 | CCGCAGCAAUAUUACGGGUA | -4.25 ± 0.42 | -2.44 ± 0.22
11 | GUCAAGCAAUAUUACGGUGA | -2.82 ± 0.21 | -2.22 ± 0.21
12 | GAGUAGCAAUAUUACGUCAA | -2.1 ± 0.19 | -1.8 ± 0.23
13 | AUAAAGCAAUAUUACGCGCC | -0.37 ± 0.13 | -0.473 ± 0.2
14 | UGAAAGCAAUAUUACGAACU | -0.526 ± 0.088 | 0.612 ± 0.1
15 | GUAAAGCAAUAUUACGUCUA | 0.446 ± 0.11 | 0.0339 ± 0.13
16 | CUGCAGCAAUAUUACGGCCC | -2.85 ± 0.36 | –
17 | AUAUAGCAAUAUUACGUAAC | -1.11 ± 0.21 | -1.86 ± 0.38

Row | Sequence | self-splicing fitness (ln) (30 °C) | self-splicing fitness (ln) (37 °C)
18 | AUCAAGCAAUAUUACGCCUU | -0.799 ± 0.094 | -0.146 ± 0.12
19 | GAGAAGCAAUAUUACGUCCA | -0.235 ± 0.12 | 0.335 ± 0.14
20 | AACAAGCAAUAUUACGACAC | -1.66 ± 0.085 | -0.431 ± 0.097
21 | GCAGAGCAAUAUUACGACUU | -2.82 ± 0.16 | -0.936 ± 0.14
22 | UUUAAGCAAUAUUACGGAAA | -2.33 ± 0.23 | -0.53 ± 0.23
23 | UUUUAGCAAUAUUACGGACG | -0.75 ± 0.2 | -0.45 ± 0.2
24 | CAAUAGCAAUAUUACGGGGG | -2.64 ± 0.19 | -2.01 ± 0.15
25 | CCAGAGCAAUAUUACGACGG | -2.88 ± 0.18 | -2.02 ± 0.28
26 | UACGAGCAAUAUUACGUUUC | -2.65 ± 0.32 | -1.69 ± 0.24
27 | UACAAGCAAUAUUACGGGCC | -3.08 ± 0.23 | -2.55 ± 0.22
28 | GGAAAGCAAUAUUACGCUUC | -2.84 ± 0.3 | –
29 | AAUCAGCAAUAUUACGGUAG | -1.83 ± 0.092 | -0.774 ± 0.097
30 | UUGCAGCAAUAUUACGGGCC | -3.8 ± 0.22 | -2.3 ± 0.17
31 | CUCAAGCAAUAUUACGAACG | -1.54 ± 0.089 | -0.932 ± 0.12
32 | ACCAAGCAAUAUUACGAACU | -0.54 ± 0.061 | -0.819 ± 0.08
33 | UCCCAGCAAUAUUACGACGU | -1.53 ± 0.071 | -0.16 ± 0.084
34 | UCUCAGCAAUAUUACGGGCG | -0.717 ± 0.08 | -0.262 ± 0.12
